According to PMC5218393 (PLoS ONE, 2017):

Assays:
[1] = target: T1, recombinant Lu extracellular domain fused with an Fc-Tag (Lu-Fc) (Homo sapiens, UniProt P50895)
[2] = target: recombinant Lu extracellular domain fused with a 6xHis-Tag (Sol-Lu) (Homo sapiens, UniProt P50895)
[3] = target: H12M35-Fc (Homo sapiens / Mus musculus chimera, UniProt P50895;Q9R069, chimera)
[4] = target: T1, recombinant Lu extracellular domain …; assay: SPR; BIAcore T200; Lu-Fc immobilized on a CM5 chip; C7 scFv (6.25, 12.5, 25, 50 and 100 nM) injected in 10 mM HEPES pH 7.4, 150 mM NaCl, 3 mM EDTA, 0.005% Tween 20 at 50 μl/min; nonlinear fitting; conditions: both partners purified

T1 sequence (P50895 32-547): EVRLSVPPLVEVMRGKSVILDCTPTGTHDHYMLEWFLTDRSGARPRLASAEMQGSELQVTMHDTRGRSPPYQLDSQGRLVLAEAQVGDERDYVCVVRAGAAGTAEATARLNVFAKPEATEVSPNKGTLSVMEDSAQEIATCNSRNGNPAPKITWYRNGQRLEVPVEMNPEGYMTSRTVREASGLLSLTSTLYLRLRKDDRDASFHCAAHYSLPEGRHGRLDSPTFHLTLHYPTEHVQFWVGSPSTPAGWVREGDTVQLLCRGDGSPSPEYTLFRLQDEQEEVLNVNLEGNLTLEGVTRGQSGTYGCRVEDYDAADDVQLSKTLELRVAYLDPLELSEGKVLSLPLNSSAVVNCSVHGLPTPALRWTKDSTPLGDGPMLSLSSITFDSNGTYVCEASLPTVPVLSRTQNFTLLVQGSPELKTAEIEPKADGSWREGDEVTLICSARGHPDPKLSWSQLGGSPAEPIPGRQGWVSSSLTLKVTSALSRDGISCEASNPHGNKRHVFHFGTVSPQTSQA
Sequence of recombinant Lu extracellular domain fused with a 6xHis-Tag (Sol-Lu) (P50895 32-547): as above
Sequence of H12M35-Fc (Q9R069 other isoform, or with tags, fused parts or gaps chimera): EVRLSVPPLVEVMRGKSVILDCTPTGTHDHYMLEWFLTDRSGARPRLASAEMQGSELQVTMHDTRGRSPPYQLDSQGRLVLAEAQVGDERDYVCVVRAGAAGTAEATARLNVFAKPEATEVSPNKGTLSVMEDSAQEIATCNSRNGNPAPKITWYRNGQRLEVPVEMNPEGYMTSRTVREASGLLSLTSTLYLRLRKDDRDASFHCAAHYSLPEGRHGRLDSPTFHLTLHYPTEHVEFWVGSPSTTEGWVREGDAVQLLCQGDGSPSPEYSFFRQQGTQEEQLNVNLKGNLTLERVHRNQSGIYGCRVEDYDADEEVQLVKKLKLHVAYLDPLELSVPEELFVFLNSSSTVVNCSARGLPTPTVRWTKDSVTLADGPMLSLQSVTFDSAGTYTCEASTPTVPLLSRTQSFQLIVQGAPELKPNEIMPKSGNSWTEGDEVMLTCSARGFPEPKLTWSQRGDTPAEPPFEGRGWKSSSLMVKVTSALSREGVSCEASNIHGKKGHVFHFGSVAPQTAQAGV

Row | binding result [1] | binding result [2] | binding result [3] | Kd [4] [nM] | koff [4] [s⁻¹] | kon [4] [M⁻¹ s⁻¹] | Binder
1 | binds | binds | binds | – | – | – | A1 (antibody, V domains shown) VH: QVQLVQSGAEVRRPGSSVRISCRTSGGTFNNYALSWVRQAPGQGLEWMGGIIPIVGTAVYAEKFEDSVTVTADESASTAYMEVRSLRSEDTAVYYCATGEKFVSPWFGDLPLHHWGQGTLVTVSS VL: QSVLTQPPSVSGAPGQRVTISCTGSSSNIGAPYDVHWYQQVPGTAPKLLIYGNTNRPSRVPDRFSGSKSGTSASLAITGLQADDEADYYCQSYDRSLGGSIFGGGTKLTVL
2 | binds | binds | binds | – | – | – | A4 (antibody, V domains shown) VH: QVQLVQSGAEVRRPGSSVRISCRTSGGTFNNYALSWVRQAPGQGLEWMGGIIPIVGTAVYAEKFEDSVTVTADESASTAYMEVRSLRSEDTAVYYCATGEKFVSPWFGDLPLHHWGQGTLVTVSS VL: QSVLTQPPSVSGAPGQRVTISCTGSSSNIGAPYDVHWYQQVPGTAPKLLIYGNTNRPSGVPDRFSGSKSGTSASLAITGLQADDEADYYCQSYDRSLGGSIFGGGTKLTVL
3 | – | – | – | 36.6 | 0.0049 | 135000 | C7 scFv (soluble, purified) (scFv, V domains shown, VH of clone C7, as in m3; linker, printed as (Gly4Ser)3; VL of clone C7, as in m3; Single band of 29-30 kDa; monomer by size exclusion chromatography; The 6xHis tag is named in the discussion (6xHis tag antibody); also called the scFv form; the purified C7 scFv; source: E. coli HB2151, periplasmic fraction, purified (His Trap excel)) VH: QMQLVQSGAEVRRPGSSVRISCRTSGGTFNNYALSWVRQAPGQGLEWMGGIIPIVGTAVYAEKFEDSVTVTADESASTAYMEVRSLGSEDTAVYYCATGEKFVSPWFGDLPLHHWGQGTLVTVSS VL: QSVLTQPPSVSGAPGQRVTISCTGSSSNIGAPYDVHWYQQIPGTAPKLLIYGNTNRPSGVPDRFSGSKSGTSASLAITGLQADDEADYYCQSYDRSLGGSIFGGGTKLTVL
4 | binds | binds | binds | – | – | – | B8 (antibody, V domains shown) VH: QMQLVQSGAEVRRPGSSVRISCRTSGGTFNNYALSWVRQAPGQGLEWMGGIIPIVGTAVYAEKFEDSVTVTADESASTAYMEVRSLRSEDTAVYYCATGEKFVSPWFGDLPLHHWGQGTLVTVSS VL: QSVLTQPPSVSGAPGQRVTISCTGSSSNIGAPYDVHWYQQLPGTAPKLLIYGNTNRPSGVPDRFSGSKSGTSASLAITGLQADDEADYYCQSYDRSLGGSIFGGGTKVTVL
